Laboratory results reported in FireProtDB (doi:10.1021/bi027116n).
Where “and” joins values, the source holds several entries; their conditions need not be identical. Equal values may be shown once.

Settings: Spinacia oleracea, reversible: no; for denaturant midpoint (higher = more stable): 20 °C, GdnHCl; for Tm: Thermal

Chain of Ferredoxin-1, chloroplastic wild type, P00221 (P00221 whole entry): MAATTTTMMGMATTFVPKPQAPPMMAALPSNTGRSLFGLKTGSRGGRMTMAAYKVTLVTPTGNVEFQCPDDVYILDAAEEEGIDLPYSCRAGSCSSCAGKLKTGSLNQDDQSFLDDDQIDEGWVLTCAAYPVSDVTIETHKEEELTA

Substance: Ferredoxin-1, chloroplastic wild type, P00221
- denaturant midpoint (higher = more stable) (pH 7, Absorbance, phosphate): 2.1 M and 1.7 M and 1.5 M
- denaturant midpoint (higher = more stable) (pH 7, CD, phosphate): 2.1 M and 1.6 M
- denaturant midpoint (higher = more stable) (pH 7, Emission, phosphate): 1.6 M
- Tm (pH 7, Absorbance, Phosphate): 70 °C
- denaturant midpoint (higher = more stable) (pH 10, Absorbance, Glycine-OH): 3 M and 1.5 M
- denaturant midpoint (higher = more stable) (pH 10, CD, Glycine-OH): 1.6 M
- denaturant midpoint (higher = more stable) (pH 10, Emission, Glycine-OH): 1.6 M
- Tm (pH 10, Absorbance, Glycine-OH): 53 °C
